Experimental data reported in patent publication US20220135701A1 (Genentech, published 2022).

Key:
[1] = molecular target: T1, human MerTK on human macrophages (human, UniProt Q12866 21-999); experiment: cell-based or functional assay
T1 sequence: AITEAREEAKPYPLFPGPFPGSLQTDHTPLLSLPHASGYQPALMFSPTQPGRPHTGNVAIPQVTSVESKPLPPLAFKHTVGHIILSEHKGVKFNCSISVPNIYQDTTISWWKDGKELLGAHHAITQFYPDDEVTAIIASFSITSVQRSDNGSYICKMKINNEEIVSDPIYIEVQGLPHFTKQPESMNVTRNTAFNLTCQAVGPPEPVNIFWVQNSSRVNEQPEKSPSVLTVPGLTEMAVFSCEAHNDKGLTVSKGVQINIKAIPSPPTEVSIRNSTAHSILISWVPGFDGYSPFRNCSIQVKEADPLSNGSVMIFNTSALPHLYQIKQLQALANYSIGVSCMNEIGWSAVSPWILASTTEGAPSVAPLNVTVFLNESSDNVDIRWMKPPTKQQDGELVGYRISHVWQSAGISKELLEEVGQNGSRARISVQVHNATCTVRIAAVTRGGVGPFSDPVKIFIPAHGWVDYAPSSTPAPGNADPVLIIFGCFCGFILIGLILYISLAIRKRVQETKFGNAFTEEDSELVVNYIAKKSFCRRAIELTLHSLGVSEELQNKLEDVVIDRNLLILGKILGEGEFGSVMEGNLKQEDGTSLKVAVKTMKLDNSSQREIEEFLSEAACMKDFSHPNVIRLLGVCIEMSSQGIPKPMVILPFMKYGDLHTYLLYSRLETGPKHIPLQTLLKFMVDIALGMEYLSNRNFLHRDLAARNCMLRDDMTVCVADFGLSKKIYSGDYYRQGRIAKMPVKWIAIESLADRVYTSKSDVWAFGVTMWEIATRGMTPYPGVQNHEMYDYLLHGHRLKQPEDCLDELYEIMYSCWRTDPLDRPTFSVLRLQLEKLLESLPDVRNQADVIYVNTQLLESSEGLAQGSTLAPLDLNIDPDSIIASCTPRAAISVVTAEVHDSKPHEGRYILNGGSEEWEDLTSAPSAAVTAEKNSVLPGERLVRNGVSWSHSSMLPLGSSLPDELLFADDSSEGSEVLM

[2] = molecular target: T2, cynomolgus monkey MerTK (cynomolgus monkey, UniProt A0A2K5V1H9 32-505); experiment: SPR BIAcore T200, Ab captured, 37C
T2 construct: Soluble analyte in SPR; also called Cyno MerTK
T2 sequence: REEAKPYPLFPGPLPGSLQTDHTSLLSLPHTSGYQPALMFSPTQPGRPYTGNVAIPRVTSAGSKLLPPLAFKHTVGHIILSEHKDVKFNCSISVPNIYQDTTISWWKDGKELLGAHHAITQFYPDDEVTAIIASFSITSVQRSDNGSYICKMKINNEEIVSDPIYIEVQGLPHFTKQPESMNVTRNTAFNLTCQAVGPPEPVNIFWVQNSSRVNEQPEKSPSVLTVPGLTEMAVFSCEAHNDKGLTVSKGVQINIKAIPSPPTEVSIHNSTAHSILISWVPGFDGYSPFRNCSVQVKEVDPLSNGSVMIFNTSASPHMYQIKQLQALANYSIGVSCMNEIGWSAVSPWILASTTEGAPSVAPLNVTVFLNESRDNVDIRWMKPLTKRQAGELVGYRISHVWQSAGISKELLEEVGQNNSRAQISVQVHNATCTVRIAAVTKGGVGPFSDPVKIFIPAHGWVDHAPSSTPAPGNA
Method: (§1) Each rabbit and humanized antibody was subjected to a binding assay to determine its affinity to MerTK derived from various species.
(§2) All binding affinity determinations were obtained using Surface Plasmon Resonance (SPR) measurements from a BIAcore™-T200 instrument. Briefly, each rabbit or humanized antibody was captured to achieve approximately 100 RU (Response Units). Then, 3-fold serial dilutions of MerTK from various species (0.4 nM to 100 nM) diluted in HBS-EP buffer (0.01M HEPES pH 7.4, 0.15M NaCl, 3 mM EDTA and 0.05% v/v surfactant P20) was injected into the BIAcore™-T200 instrument at 25° C. or 37° C. with a flow rate of 30 μl/min. Association rates (kₒₙ) and dissociation rates (koff) were calculated using a simple one-to-one Langmuir binding model (BIAcore T200 evaluation software version 2.0). The equilibrium dissociation constant (KD) was calculated as the ratio koff/kₒₙ.

[3] = molecular target: T3, rat MerTK (rat, UniProt P57097 23-496, limits assumed); experiment: SPR BIAcore T200, Ab captured, 37C
T3 construct: Soluble analyte in SPR
T3 sequence (looked up): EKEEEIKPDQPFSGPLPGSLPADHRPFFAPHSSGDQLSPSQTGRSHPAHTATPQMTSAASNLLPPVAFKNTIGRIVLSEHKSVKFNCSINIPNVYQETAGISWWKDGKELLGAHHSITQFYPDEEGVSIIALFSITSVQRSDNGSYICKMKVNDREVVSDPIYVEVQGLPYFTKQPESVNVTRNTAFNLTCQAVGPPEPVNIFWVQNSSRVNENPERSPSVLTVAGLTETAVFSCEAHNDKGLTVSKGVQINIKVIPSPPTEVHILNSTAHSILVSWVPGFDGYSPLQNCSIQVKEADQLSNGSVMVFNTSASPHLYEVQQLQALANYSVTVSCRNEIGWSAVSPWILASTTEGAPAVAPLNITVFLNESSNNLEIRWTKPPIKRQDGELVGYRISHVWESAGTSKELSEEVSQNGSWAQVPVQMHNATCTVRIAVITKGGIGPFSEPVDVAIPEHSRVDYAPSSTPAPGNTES
Method: as §1, §2

[4] = molecular target: T4, mouse MerTK (mouse, UniProt Q60805 23-496); experiment: SPR BIAcore T200, Ab captured, 37C
T4 construct: also called MuMER
T4 sequence (looked up): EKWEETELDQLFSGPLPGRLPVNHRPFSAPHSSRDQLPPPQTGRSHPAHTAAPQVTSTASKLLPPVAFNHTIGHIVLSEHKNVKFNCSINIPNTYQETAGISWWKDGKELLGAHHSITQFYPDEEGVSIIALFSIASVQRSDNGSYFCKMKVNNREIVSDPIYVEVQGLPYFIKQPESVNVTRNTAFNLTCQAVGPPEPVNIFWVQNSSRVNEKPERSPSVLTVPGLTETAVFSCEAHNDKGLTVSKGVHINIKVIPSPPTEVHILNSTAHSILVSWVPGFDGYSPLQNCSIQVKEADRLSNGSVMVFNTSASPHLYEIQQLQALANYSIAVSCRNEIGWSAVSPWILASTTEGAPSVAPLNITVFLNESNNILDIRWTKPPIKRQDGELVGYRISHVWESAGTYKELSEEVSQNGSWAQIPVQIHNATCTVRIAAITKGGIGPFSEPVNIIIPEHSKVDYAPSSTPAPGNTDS
Method: as §1, §2

B1: h10F7.v16 (antibody, V domains shown)
VH: EVQLVESGGGLVQPGGSLRLSCAVSGFSLSGYAMSWVRQAPGKGLEYIGVISSSGSSYYPSWAKGRFTISKDNSKNTLYLQMGSLRAEDMAVYYCARVQFYVGYAVYGYGIIDRLDLWGQGTLVTVSS
VL: DIVLTQSPDSLAVSLGERATINCQSSKSVYNNNWLSWYQQKPGQPPKLLIYRASTLESGVPDRFSGSGSGTDFTLTISSLQAEDVAVYFCAGGYSSSSSANAFGGGTKVEIK
notes: Humanized, human IgG1; also called 10F7 Fully Humanized; 10F7 Humanized polished mAb
IC50 (nM), efferocytosis by human macrophages, Average (3 Donors) [1]: 0.41 nM | IC50 (nM), efferocytosis by human macrophages, Donor A [1]: 0.42 nM | IC50 (nM), efferocytosis by human macrophages, Donor B [1]: 0.53 nM | IC50 (nM), efferocytosis by human macrophages, Donor C [1]: 0.27 nM | Max Inhibition (%), efferocytosis by human macrophages, Average (3 Donors) [1]: 69% | Max Inhibition (%), efferocytosis by human macrophages, Donor A [1]: 76% | Max Inhibition (%), efferocytosis by human macrophages, Donor B [1]: 73% | Max Inhibition (%), efferocytosis by human macrophages, Donor C [1]: 60% | Kd [2]: 2100 pM | Kd [3]: 3200 pM | Kd [4]: 1400 pM
